The source of these data is PMC6987408, “Structural Insights Into the Transcriptional Regulation of HigBA Toxin–Antitoxin System by Antitoxin HigA in Pseudomonas aeruginosa” (Frontiers in Microbiology, 2019).

Data set [1] has as its target PaHigA (Pseudomonas aeruginosa PAO1) (UniProt Q9HVC1). Kind of data set: ITC. The note with it: ITC: 20 mM Tris pH 8.0, 100 mM NaCl, 5% glycerol, 20 C, 400 uM DNA into 100 uM PaHigA; EMSA: DNA annealed in 10 mM NaCl, 20 mM Tris pH 8.0, 30 min at room …. (A gel shift assay detects complexes by their altered migration in electrophoresis.)
Data set [2] concerns the molecule itself. Briefly: SAXS; apo PaHigA in solution at 1, 3 and 5 mg/ml, 22°C; oligomeric state from the fit to the dimer's theoretical curve and from the calculated molecular mass.
Data set [3] addresses PaHigA (Pseudomonas aeruginosa PAO1, UniProt Q9HVC1 1-101). Kind of data set: crystal structure; 2.50 A; water-mediated contacts; ITC: 20 mM Tris pH 8.0, 100 mM NaCl, 5% glycerol, 20 C, 400 uM DNA into 100 uM PaHigA; EMSA: DNA annealed in 10 mM NaCl, 20 mM Tris pH 8.0, 30 min at room temperature, 5% native gel at 20 C. As to conditions: protein: recombinant; tags: C-terminal His6; chain copies: 4.

In data set [1], PhigBA 28-bp duplex returned a Ka of 7.5e+13 M^-2.

B1: PaHigA (Pseudomonas aeruginosa antitoxin HigA) (natural protein, Pseudomonas aeruginosa PAO1, UniProt Q9HVC1 1-101, looked up)
chain: MATNGMRPIHPGEILRDEFLMEFDISPAALARALKVSAPTVNDIVREQRGISADMAIRLGRYFDTSAQFWMNLQSEYSLATAYAANGKQIEHEIEPLLAHG
notes: Antitoxin HigA of P. aeruginosa PAO1, gene higA (PA4674), full length amplified from the PAO1 genome; Cloned NcoI/BamHI into pET28b with a C-terminal His tag; the construct comes from Guo et al., 2019; also called PaHigA-His; apo PaHigA; source: E. coli BL21(DE3) pLysS, purified (nickel-nitrilotriacetic acid resin, gel filtration on Superdex 200); not shown: His6, C-terminal, kept
As usually defined, the stoichiometry N is a count of units in the complex or per binding partner. In the case of B1, the “stoichiometry N” value in data set [2] is 2.

B2: PhigBA 18-bp duplex (dsDNA)
DNA 1: ACGCTTAACGTTAAGGGT
DNA 2: ACCCTTAACGTTAAGCGT
Consider B2, for which, in data set [3], the binding result is given as “binds”.
